{
  "source": "paper PMC2562705",
  "about": "(Biochemistry, 2008)",
  "molecules": {"B1": {"name": "stRhamD (RhamD from S. typhimurium LT2) (Salmonella enterica subsp. enterica serovar Typhimurium str. LT2) (protein)", "chain": "MENIMTLPKIKHVRAWFIGGATAEKGAGGGDYHDQGGNHWIDDHIATPMSKYRDYEQSRQSFGINVLGTLIVEVEAENRQTGFAVSTAGEMGCFIVEKHLNRFIEGKCVSDIKLIHDQMLGATMYYSGSGGLVMNTISCVDLALWDLFGKVVGLPVYKLLGGAVRDEIQFYATGARPDLAKEMGFIGGKMPTHWGPHDGDAGIRKDAAMVADMREKCGPDFWLMLDCWMSQDVNYATKLAHACAPFNLKWIEECLPPQQYEGYRELKRNAPAGMMVTSGEHHGTLQSFRTLAETGIDIMQPDVGWCGGLTTLVEIAALAKSRGQLVVPHGSSVYSHHAVITFTNTPFSEFLMTSPDCSTLRPQFDPILLDEPVPVNGRIHKSVLDKPGFGVELNRDCHLKRPYSH"}, "B2": {"name": "L-rhamnonate dehydratase (RhamD) from Escherichia coli K-12 (enzyme, E. coli K-12)", "chain": "MTLPKIKQVRAWFTGGATAEKGAGGGDYHDQGANHWIDDHIATPMSKYRDYEQSRQSFGINVLGTLVVEVEAENGQTGFAVSTAGEMGCFIVEKHLNRFIEGKCVSDIKLIHDQMLSATLYYSGSGGLVMNTISCVDLALWDLFGKVVGLPVYKLLGGAVRDEIQFYATGARPDLAKEMGFIGGKMPTHWGPHDGDAGIRKDAAMVADMREKCGEDFWLMLDCWMSQDVNYATKLAHACAPYNLKWIEECLPPQQYESYRELKRNAPVGMMVTSGEHHGTLQSFRTLSETGIDIMQPDVGWCGGLTTLVEIAAIAKSRGQLVVPHGSSVYSHHAVITFTNTPFSEFLMTSPDCSTMRPQFDPILLNEPVPVNGRIHKSVLDKPGFGVELNRDCNLKRPYSH"}, "B3": {"name": "YfaW / ecRhamD (RhamD from E. coli K-12) (Escherichia coli K-12; H277N) (protein)", "chain": "B2 chain with H277N"}, "B4": {"name": "YfaW / ecRhamD (RhamD from E. coli K-12) (Escherichia coli K-12; H325N) (protein)", "chain": "B2 chain with H325N"}, "B5": {"name": "L-rhamnonate dehydratase (RhamD) from Salmonella typhimurium LT2 (enzyme)", "chain": "ENIMTLPKIKHVRAWFIGGATAEKGAGGGDYHDQGGNHWIDDHIATPMSKYRDYEQSRQSFGINVLGTLIVEVEAENRQTGFAVSTAGEMGCFIVEKHLNRFIEGKCVSDIKLIHDQMLGATMYYSGSGGLVMNTISCVDLALWDLFGKVVGLPVYKLLGGAVRDEIQFYATGARPDLAKEMGFIGGKMPTHWGPHDGDAGIRKDAAMVADMREKCGPDFWLMLDCWMSQDVNYATKLAHACAPFNLKWIEECLPPQQYEGYRELKRNAPAGMMVTSGEHHGTLQSFRTLAETGIDIMQPDVGWCGGLTTLVEIAALAKSRGQLVVPHGSSVYSHHAVITFTNTPFSEFLMTSPDCSTLRPQFDPILLDEPVPVNGRIHKSVLDKPGFGVELNRDCHLKRPYSH"}},
  "key": {"[1]": {"molecular_target": "RhamD from Gibberella zeae (Fusarium graminearum, UniProt D0VX14)", "sequence (D0VX14 1-450)": "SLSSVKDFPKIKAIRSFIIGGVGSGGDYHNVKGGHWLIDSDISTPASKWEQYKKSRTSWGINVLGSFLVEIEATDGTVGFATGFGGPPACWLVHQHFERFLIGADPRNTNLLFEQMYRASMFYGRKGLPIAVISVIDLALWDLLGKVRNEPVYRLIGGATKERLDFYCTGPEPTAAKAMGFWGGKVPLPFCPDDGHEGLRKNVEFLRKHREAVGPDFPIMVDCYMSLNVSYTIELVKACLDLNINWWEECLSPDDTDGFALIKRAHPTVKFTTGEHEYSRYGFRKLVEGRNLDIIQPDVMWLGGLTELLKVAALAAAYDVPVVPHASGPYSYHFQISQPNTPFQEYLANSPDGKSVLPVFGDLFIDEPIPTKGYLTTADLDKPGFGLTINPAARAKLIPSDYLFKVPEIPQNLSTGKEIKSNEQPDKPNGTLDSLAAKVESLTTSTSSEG", "conditions": "kinetic data not shown"}, "[2]": {"molecular_target": "T1, RhamD from Azotobacter vinlandii (Azotobacter vinelandii, UniProt C1DMY1)", "T1 sequence (C1DMY1 1-394)": "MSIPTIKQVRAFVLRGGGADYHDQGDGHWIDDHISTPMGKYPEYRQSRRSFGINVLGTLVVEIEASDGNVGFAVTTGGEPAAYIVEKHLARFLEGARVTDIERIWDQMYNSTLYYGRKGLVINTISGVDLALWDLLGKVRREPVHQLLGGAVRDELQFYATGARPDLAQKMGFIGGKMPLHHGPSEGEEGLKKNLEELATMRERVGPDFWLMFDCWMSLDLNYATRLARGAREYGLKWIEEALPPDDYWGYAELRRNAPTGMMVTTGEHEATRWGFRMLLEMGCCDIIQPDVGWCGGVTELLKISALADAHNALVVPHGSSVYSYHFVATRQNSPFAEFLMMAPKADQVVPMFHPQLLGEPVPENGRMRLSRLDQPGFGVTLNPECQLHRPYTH", "assay": "dehydration activity", "assay_type": "biochemical", "conditions": "kinetic data not shown"}, "dehydration [3]": {"substrate": "O=C(O)[C@H](O)[C@H](O)[C@@H](O)CO", "assay": "dehydration", "assay_type": "biochemical, Salmonella enterica", "conditions": "5 mM MgCl2, Tris-HCl pH 7.9 or K-Hepes pH 7.5, 25 °C"}, "dehydration [4]": {"substrate": "C[C@H](O)[C@H](O)[C@@H](O)[C@@H](O)C(=O)O", "assay": "dehydration", "assay_type": "biochemical, Salmonella enterica", "conditions": "5 mM MgCl2, Tris-HCl pH 7.9 or K-Hepes pH 7.5, 25 °C"}, "dehydration [5]": {"substrate": "O=C(O)[C@H](O)[C@H](O)[C@@H](O)[C@@H](O)CO", "assay": "dehydration", "assay_type": "biochemical, Salmonella enterica", "conditions": "5 mM MgCl2, Tris-HCl pH 7.9 or K-Hepes pH 7.5, 25 °C"}, "crystal structure [6]": {"molecular_target": "the molecule itself", "assay": "crystal structure"}, "dehydration [7]": {"substrate": "O=C(O)[C@H](O)[C@H](O)[C@@H](O)CO", "assay": "dehydration", "assay_type": "biochemical, Escherichia coli", "conditions": "5 mM MgCl2, Tris-HCl pH 7.9 or K-Hepes pH 7.5, 25 °C"}, "dehydration [8]": {"substrate": "C[C@H](O)[C@H](O)[C@@H](O)[C@@H](O)C(=O)O", "assay": "dehydration", "assay_type": "biochemical, Escherichia coli", "conditions": "5 mM MgCl2, Tris-HCl pH 7.9 or K-Hepes pH 7.5, 25 °C"}, "dehydration [9]": {"substrate": "O=C(O)[C@H](O)[C@H](O)[C@@H](O)[C@@H](O)CO", "assay": "dehydration", "assay_type": "biochemical, Escherichia coli", "conditions": "5 mM MgCl2, Tris-HCl pH 7.9 or K-Hepes pH 7.5, 25 °C"}, "crystal structure [10]": {"molecular_target": "the molecule itself", "assay": "crystal structure", "remark": "listed apart in the source"}},
  "note": "Positions count from the first letter of the chain named. In names and notes the source's numbering stands. Where two headings read alike, the source gives them in different places.",
  "data": [
    {"molecule": "C[C@H](O)[C@H](O)[C@@H](O)[C@@H](O)C(=O)O", "note": "[L-rhamnonate]", "values": [
      {"measurement": "dehydration activity", "setting": "[1]", "result": "Each of these homologues catalyzes the RhamD reaction"},
      {"measurement": "dehydration activity", "setting": "[2]", "result": "Each of these homologues catalyzes the RhamD reaction"}
    ]},
    {"molecule": "B1", "values": [
      {"measurement": "Km", "setting": "dehydration [3]", "result": "1600 ± 1200", "unit": "µM"},
      {"measurement": "kcat", "setting": "dehydration [3]", "result": "0.05 ± 0.03", "unit": "s⁻¹"},
      {"measurement": "kcat/Km", "setting": "dehydration [3]", "result": 30, "unit": "M⁻¹ s⁻¹"},
      {"measurement": "Km", "setting": "dehydration [4]", "result": "250 ± 80", "unit": "µM"},
      {"measurement": "kcat", "setting": "dehydration [4]", "result": "3.9 ± 1.6", "unit": "s⁻¹"},
      {"measurement": "kcat/Km", "setting": "dehydration [4]", "result": 16000, "unit": "M⁻¹ s⁻¹"},
      {"measurement": "Km", "setting": "dehydration [5]", "result": "60 ± 40", "unit": "µM"},
      {"measurement": "kcat", "setting": "dehydration [5]", "result": "0.1 ± 0.06", "unit": "s⁻¹"},
      {"measurement": "kcat/Km", "setting": "dehydration [5]", "result": 1700, "unit": "M⁻¹ s⁻¹"}
    ]},
    {"molecule": "B2", "values": [
      {"measurement": "stoichiometry N", "setting": "crystal structure [6]", "result": 8},
      {"measurement": "Km", "setting": "dehydration [7]", "result": "2000 ± 300", "unit": "µM"},
      {"measurement": "kcat", "setting": "dehydration [7]", "result": "0.6 ± 0.03", "unit": "s⁻¹"},
      {"measurement": "kcat/Km", "setting": "dehydration [7]", "result": 300, "unit": "M⁻¹ s⁻¹"},
      {"measurement": "Km", "setting": "dehydration [8]", "result": "150 ± 70", "unit": "µM"},
      {"measurement": "kcat", "setting": "dehydration [8]", "result": "3.2 ± 0.2", "unit": "s⁻¹"},
      {"measurement": "kcat/Km", "setting": "dehydration [8]", "result": 21000, "unit": "M⁻¹ s⁻¹"},
      {"measurement": "Km", "setting": "dehydration [9]", "result": "150 ± 60", "unit": "µM"},
      {"measurement": "kcat", "setting": "dehydration [9]", "result": "0.2 ± 0.1", "unit": "s⁻¹"},
      {"measurement": "kcat/Km", "setting": "dehydration [9]", "result": 1300, "unit": "M⁻¹ s⁻¹"}
    ]},
    {"molecule": "B3", "values": [
      {"measurement": "Km", "setting": "dehydration [8]", "result": "8800 ± 900", "unit": "µM"},
      {"measurement": "kcat", "setting": "dehydration [8]", "result": "0.09 ± 0.01", "unit": "s⁻¹"},
      {"measurement": "kcat/Km", "setting": "dehydration [8]", "result": 10, "unit": "M⁻¹ s⁻¹"}
    ]},
    {"molecule": "B4", "values": [
      {"measurement": "Km", "setting": "dehydration [8]", "result": "300 ± 30", "unit": "µM"},
      {"measurement": "kcat", "setting": "dehydration [8]", "result": "0.0005 ± 0.0001", "unit": "s⁻¹"},
      {"measurement": "kcat/Km", "setting": "dehydration [8]", "result": 1.6, "unit": "M⁻¹ s⁻¹"}
    ]},
    {"molecule": "B5", "values": [
      {"measurement": "stoichiometry N", "setting": "crystal structure [10]", "result": 8}
    ]}
  ]
}
